In the Human Domainome abundance scans (Beltran et al. 2025):

B1: Cytoplasmic polyadenylation element-binding protein 2, residues 513 to 575; numbered along this chain, Q7Z5Q1 (parent)
chain: KRVEVKPYVLDDQMCDECQGARCGGKFAPFFCANVTCLQYYCEFCWANIHSRAGREFHKPLVK

Variants of: B1
Assay: abundance fitness (aPCA) (normalised: wild type 0, dead -1); higher = more abundant; growth selection in yeast, the domain comes from the species named
Settings: Homo sapiens

Abundance fitness of substitutions, site by site:
V3: R -0.1, S 0.013, T 0.167, Y -0.37
E4: A -0.15, C -0.353, D -0.132, F -0.208, G -0.234, H -0.363, I -0.289, K -0.239, L -0.322, M -0.242, N -0.15, P -0.145, Q -0.099, S -0.185, T -0.111, V -0.223, Y -0.275
V5: A -0.088, C -0.074, E 0.144, F -0.098, I -0.113, L -0.136, M -0.011, N 0.048, P 0.167, Q 0.077, R 0.005, S 0.105, T 0.006, W -0.247, Y -0.141
K6: A -0.045, D 0.029, E -0.069, F -0.337, G -0.017, H -0.225, L -0.297, M -0.028, N 0.006, P -0.102, Q -0.083, R -0.128, S -0.085, V -0.104, W -0.315, Y -0.382
P7: A -0.227, D 0.132, E 0.051, F -0.413, G -0.141, H -0.086, I -1.07, K 0.046, L -0.579, M -0.259, N 0.01, Q -0.098, R -0.125, T -0.014, V -0.735, W -0.622, Y -0.405
Y8: A 0.01, C -0.115, E 0.18, G 0.154, H -0.036, I -0.026, K 0.121, M -0.365, N 0.13, P 0.075, Q 0.012, R 0.064, S 0.121, T -0.026, V -0.086, W -0.091
V9: A -0.02, C -0.002, D 0.083, E -0.022, G -0.087, H 0.051, I -0.022, K -0.003, L -0.043, M 0.049, N 0.007, P -0.055, Q 0.096, R -0.14, S 0.058, T -0.036, Y -0.212
L10: C -0.065, E 0.076, F 0.009, G 0.032, H -0.227, I -0.062, K 0.1, M 0.037, N 0.005, P -0.028, Q 0.121, R 0.046, T 0.045, V -0.106, W 0.056, Y -0.193
D11: A -0.122, C -0.205, E 0.084, F -0.149, G -0.041, I 0.022, L -0.27, M -0.259, N -0.028, P -0.183, Q -0.037, R -0.068, S -0.125, T -0.239, V -0.075, W -0.238, Y -0.112
D12: A -0.117, C -0.305, F -0.312, G -0.066, H 0.049, K 0.012, L -0.288, M -0.189, N -0.019, P -0.107, Q 0.052, R -0.182, S -0.146, T -0.168, V -0.221, W -0.225, Y -0.273
Q13: A -0.017, C -0.146, E -0.358, F -0.229, G -0.378, H -0.087, I -0.197, K 0.161, L -0.291, M -0.056, N -0.131, P -0.211, R 0.003, S -0.144, T -0.087, V -0.083, W -0.372, Y -0.217
M14: A -0.098, C -0.104, D 0.039, E -0.073, F -0.067, G -0.187, H -0.33, I -0.082, K 0.064, L -0.167, P -0.007, Q -0.036, R -0.154, S 0.098, T 0.069, V -0.085, W -0.352, Y 0.082
C15: A -0.394, D -0.691, F -0.588, G -0.531, H -0.418, I -0.626, K -0.649, L -0.531, M -0.507, N -0.592, P -0.454, Q -0.55, R -0.606, S -0.377, V -0.587, W -0.759, Y -0.519
D16: A 0.098, C 0.053, E 0.047, F 0.145, G 0.137, H 0.076, I 0.042, K 0.056, L -0.271, M -0.089, N 0.253, P -0.129, R 0.015, S 0.193, T 0.115, V -0.036, W -0.013, Y 0.192
E17: C -0.006, D -0.136, F -0.458, G -0.081, H 0.018, L -0.117, M -0.188, N -0.128, P -0.366, Q 0.09, R -0.059, S -0.051, T -0.22, V -0.061, W -0.25
C18: A -0.674, E -0.658, F -0.954, H -1.01, I -1.05, K -0.677, L -0.966, N -0.748, P -0.84, R -0.641, S -0.764, T -0.643, W -1.07, Y -0.966
Q19: A -0.008, C -0.22, D -0.056, E 0.006, F -0.151, G -0.036, H -0.134, I -0.503, L 0.075, M -0.091, N -0.446, P -0.579, R -0.015, S -0.071, T -0.056, V -0.093, W -0.295, Y -0.224
G20: A -0.501, C -0.503, D -0.093, E -0.462, F -0.987, H -0.509, I -0.841, K -0.403, L -0.944, M -0.756, N -0.499, P -0.688, Q -0.582, R -0.522, S -0.363, T -0.571, V -0.418, W -0.686, Y -0.598
A21: C -0.447, D -0.159, E -0.037, F -0.23, H -0.238, I -0.217, L -0.203, M -0.22, N -0.037, P -0.52, Q -0.141, R -0.033, S -0.018, T -0.117, V -0.098, W -0.41, Y -0.32
R22: A -0.126, C -0.419, D -0.289, E -0.222, F -0.363, G -0.303, H 0.077, I -0.284, K 0.006, L -0.128, M -0.026, N -0.032, P -0.504, Q 0.1, S -0.04, T -0.283, V -0.343, W -0.332
C23: A -0.154, D 0.028, E -0.153, F -0.409, G -0.056, K -0.194, L -0.285, M -0.188, N -0.121, P -0.229
